The values that follow come from patent US20080241867.

The target in the series is hybrid GFP construct containing the protease cleavage sequence SVPSGCG (SEQ ID NO:21) followed by histidine residues.

B1: Purified Bromelain (protein)
chain: AVPQSIDWRDYGAVTSVKNQNPCGACWAFAAIATVESIYKIKKGILEPLSEQQVLDCAKGYGCKGGWEFRAFEFIISNKGVASGAIYPYKAAKGTCKTDGVPNSAYITGYARVPRNNESSMMYAVSKQPITVAVDANANFQYYKSGVFNGPCGTSLNHAVTAIGYGQDSIIYPKKWGAKWGEAGYIRMARDVSSSSGICGIAIDPLYPTLEE
Take B1: the % GFP Released (60 minutes, 37° C.) is 98%; the Micrograms of GFP Released by Protease (overnight, IMAC beads) stood at 35 µg; the “averaged GFP signal (instrument signal times dilution factor, four readings)” value was “bromelain yielded a averaged (over four readings) GFP signal of 281,500”; the “fluorescence units of eluant diluted 20-fold” value was “fluorescence units of 400, 400, and 390, respectively”. In addition, the µg GFP Released by Protease (60 minutes, 37° C.) is 109 µg.

B2: Papain (protein)
chain: IPEYVDWRQKGAVTPVKNQGSCGSCWAFSAVVTIEGIIKIRTGNLNEYSEQELLDCDRRSYGCNGGYPWSALQLVAQYGIHYRNTYPYEGVQRYCRSREKGPYAAKTDGVRQVQPYNEGALLYSIANQPVSVVLEAAGKDFQLYRGGIFVGPCGNKVDHAVAAVGYGPNYILIKNSWGTGWGENGYIRIKRGTGNSYGVCGLYTSSFYPVKN
With B2, the % GFP Released (60 minutes, 37° C.) was determined as 97%; the Micrograms of GFP Released by Protease (overnight, IMAC beads) came to 244 µg; the “averaged GFP signal (instrument signal times dilution factor, four readings)” value was “papain yielded an averaged (over four readings) GFP signal of 282,000”; the “fluorescence units of eluant diluted 20-fold” value was “fluorescence units of 400, 400, and 390, respectively”. Moreover, the µg GFP Released by Protease (60 minutes, 37° C.) is 109 µg.

B3: Proteinase K (protein)
chain: AAQTNAPWGLARISSTSPGTSTYYYDESAGQGSCVYVIDTGIEASHPEFEGRAQMVKTYYYSSRDGNGHGTHCAGTVGSRTYGVAKKTQLFGVKVLDDNGSGQYSTIIAGMDFVASDKNNRNCPKGVVASLSLGGGYSSSVNSAAARLQSSGVMVAVAAGNNNADARNYSPASEPSVCTVGASDRYDRRSSFSNYGSVLDIFGPGTSILSTWIGGSTRSISGTSMATPHVAGLAAYLMTLGKTTAASACRYIADTANKGDLSNIPFGTVNLLAYNNYQA
On to B3, for which the Micrograms of GFP Released by Protease (overnight, IMAC beads) was 94 µg.
